Data reported in patent US20230218771A1, “SELF-ASSEMBLING PRODRUGS AS IMMUNE BOOSTERS FOR CANCER IMMUNOTHERAPY” (priority 2020, published 2023).
Where a SMILES comes first, the peptide text is derived from it. Bridges are numbered along the chain shown (N, C = ends). [ ]: non-standard residue; d: D form. The star is where a group is joined. ξ: configuration not given here. X1 = CC[C@@]1(OC(=O)OCCSSC[C@H](NC(C)=O)C(=O)*)C(=O)OCc2c1cc1n(c2=O)Cc2cc3ccccc3nc2-1; S(CH2)2OCO2(CPT-20-yl) = CC[C@@]1(OC(=O)OCCS*)C(=O)OCc2c1cc1n(c2=O)Cc2cc3ccccc3nc2-1; ξR = N=C(N)NCCCC(N)C(=O)O

Experiments:
[1] = tested on: GL-261 cells; assay: Cytotoxicity assay (MTT or WST-1); format: cell-based; conditions: 48 h incubation
Protocol: GL-261 cells (2.5×10^3 cells/well) were incubated in a 96-well plate overnight. The cells were then treated with varying concentrations of CPT or diCPT-PLGLAG-iRGD or diCPT-iRGD solutions, with untreated cells used as a control. After 48 h incubation, cell viability was tested using an MTT or WST-1 assay. The percentage of cell viability was calculated as follows: Cell Viability (%)=A570sample/A570control×100%. IC50 values of the drug formulations were analyzed using Graph Pad Prism 5.

[2] = tested on: GL-261 tumors; assay: Tumor tissue penetration, fluorescence imaging of tumor sections (NT vs NT-Sham); format: in vivo, GL-261 tumor-bearing mice; conditions: day 3 after intratumoral injection
Source text: FIG. 39 is fluorescence imaging of tumor sections to specifically analyze the information from tumor areas of GL-261 tumor-bearing mice that intratumoral injected with NT-Sham (NTs formed from diCPT-iRGRD) or NT. The images were obtained on day 3 day after treatment. Blue: CPT (Excitation at 365 nm), Red: DRAQS™ stained nuclei, scale bar: 500 μm.

[3] = GSH responsive drug release of CPT prodrugs; format: in vitro ADME; conditions: presence of GSH, within 2 hours
Protocol: Briefly, 20 mM glutathione (GSH) and 400 μM diCPT-PLGLAG-iRGD or diCPT-iRGD stock solutions were prepared in water or PBS (pH 7.4). Equal volumes of GSH and diCPT-PLGLAG-iRGD or diCPT-iRGD solutions were then mixed to reach a final GSH concentration of 10 mM and the mixtures were incubated at 37° C. Samples were then taken at predetermined time points (0, 0.5, 1, 2, 4, 8, 12 and 24 h) and quantified using HPLC.

[4] = In vivo hydrogel formation and degradation after subcutaneous injection; parameters: species or system C57BL/6 mice; conditions: within 45 days
Protocol: 100 μl of 7.2 mM P-NT solution or diCPT-iRGD NT solution (5.75 mM, 100 μL) was injected into the back of C57BL/6 mice. The mice were then sacrificed at predetermined time points (1 hour, 5, 15, 30 and 45 days). The remaining hydrogel in each mouse was photographed and the amount of drug that persisted within the hydrogel was determined using HPLC.

[5] = tested on: GL-261 tumor spheroids; assay: Inhibition of tumor spheroids; format: cell-based; conditions: CPT concentration of 5 μM
Protocol: GL-261 cells were seeded at a density of 1×10^4 cells/well into agarose coated 48-well plates. After the culture plates were incubated at 37° C. for 7 days, the spheroids were treated with free CPT, NT and P-NT at the CPT concentration of 5 μM. The tumor spheroids were photographed every two days. Growth inhibition was evaluated by measuring the size of the tumor spheroids. Volume of the tumor spheroids was calculated using the equation […], with dmax dmin representing the maximum and minimum diameter of the spheroid, respectively.

[6] = Intratumoral retention of Cy7-labeled CDA (IVIS); format: in vivo, GL-261 tumor-bearing mice; conditions: intratumoral injection
Protocol: At predetermined time points, fluorescence images were recorded by an IVIS Spectrum imaging system (Perkin Elmer).

[7] = biological target: diCPT-PLGLAG-iRGD

Molecule: CC[C@@]1(OC(=O)OCCSSC[C@H](NC(C)=O)C(=O)NCCCC[C@H](NC(=O)[C@H](CSSCCOC(=O)O[C@]2(CC)C(=O)OCc3c2cc2n(c3=O)Cc3cc4ccccc4nc3-2)NC(C)=O)C(=O)N[C@H]2CSSC[C@@H](C(N)=O)NC(=O)[C@H](CC(=O)O)NC(=O)[C@@H]3CCCN3C(=O)CNC(=O)C(CCCNC(=N)N)NC(=O)[C@H](CC(=O)O)NC(=O)CNC(=O)[C@H](CCCNC(=N)N)NC2=O)C(=O)OCc2c1cc1n(c2=O)Cc2cc3ccccc3nc2-1 (stereo partly shown) [diCPT-iRGD] (Ac-C(S(CH2)2OCO2(CPT-20-yl))K(X1)CRGD[ξR]GPDC-NH2; disulfide 3-11)
- cytotoxicity against GL-261 brain tumor cells [1]: potent cytotoxicity
- CPT fluorescence at the tumor periphery [2]: distinct CPT fluorescence can be observed throughout the tumor and even at the tumor periphery
- free CPT released [3]: ~100%
- hydrogel degraded [4]: approximately 75%
- cytotoxicity against 3D tumor spheroids [5]: potent cytotoxicity

Molecule: Nc1ncnc2c1ncn2[C@@H]1O[C@@H]2COP(O)(=S)O[C@@H]3C(O)[C@@H](COP(O)(=S)O[C@H]2[C@H]1O)O[C@H]3n1cnc2c(N)ncnc21 (stereo partly shown) [free CDA, 2′3′-c-di-AM(PS)2 (Rp,Rp)]
- CDA fluorescence signal in tumors [6]: virtually no fluorescence signal observed five days after injection

B1: Human MMP2 recombinant protein (protein)
chain: APSPIIKFPGDVAPKTDKELAVQYLNTFYGCPKESCNLFVLKDTLKKMQKFFGLPQTGDLDQNTIETMRKPRCGNPDVANYNFFPRKPKWDKNQITYRIIGYTPDLDPETVDDAFARAFQVWSDVTPLRFSRIHDGEADIMINFGRWEHGDGYPFDGKDGLLAHAFAPGTGVGGDSHFDDDELWTLGEGQVVRVKYGNADGEYCKFPFLFNGKEYNSCTDTGRSDGFLWCSTTYNFEKDGKYGFCPHEALFTMGGNAEGQPCKFPFRFQGTSYDSCTTEGRTDGYRWCGTTEDYDRDKKYGFCPETAMSTVGGNSEGAPCVFPFTFLGNKYESCTSAGRSDGKMWCATTANYDDDRKWGFCPDQGYSLFLVAAHEFGHAMGLEHSQDPGALMAPIYTYTKNFRLSQDDIKGIQELYGASPDIDLGTGPTPTLGPVTPEICKQDIVFDGIAQIRGEIFFFKDRFIWRTVTPRDKPMGPLLVATFWPELPEKIDAVYEAPQEEKAVFFAGNEYWIYSASTLERGYPKPLTSLGLPPDVQRVDAAFNWSKNKKTYIFAGDKFWRYNEVKKKMDPGFPKLIADAWNAIPDNLDAVVDLQGGGHSYFFKGAYYLKLENQSLKSVKFGSIKSDWLGC
- degradation of diCPT-PLGLAG-iRGD by MMP-2 (HPLC, 200 uM conjugate, 2 ug/ml MMP-2, 37 C) [7]: 54% cleaved after 8 hours
